According to US6867011B1, “Synthetic bioepitope compounds which can be used as standards in the biological assays of Troponin I” (Bio-Rad Pasteur, priority 1996, dated 2005):

Legend:
[1] = Tests of stability of compound 10 solutions stored at +4° C., assayed periodically with the troponin I kit; assay type: physicochemical; conditions: buffer solutions stored at +4° C.
Method: A compound according to the invention (compound 10) was diluted in water (C=2 mg/ml). From this “stock” solution, four “working” solutions S1, S2, S3 and S4 are obtained.
To carry out the various dilutions, a 0.1 M sodium succinate buffer solution (pH=6) containing Kathon (0.2%), Re gilait (0.05%) and 2 mM EDTA was used for solutions S1 (C=0.5 ng/ml) and S2 (C=1 ng/ml).
Solutions S3 (C=0.5 ng/ml) and S4 (C=1 ng/ml) were obtained by diluting the “stock” solution with phosphate buffer (KH2PO4/K2HPO4 pH=7.5) containing Kathon (0.2%), Régilait (0.05%) and 2 mM EDTA.
Solutions S1, S2, S3 and S4 were assayed, according to the protocol described in Example 2, on D0 (day of preparation of the solutions). The values obtained served as reference for monitoring stability.
Next, solutions S1, S2, S3 and S4 were stored at +4° C. and assayed periodically. During each series of assays, three “control solutions” were used. They are the freeze-dried troponin I control sera distributed in the assay measuring range. […] During each stability test, it was checked that each of the controls tested was obtained at its target concentration. This therefore made it possible to compare the concentrations obtained for the peptides during the various tests. […]

[2] = assay type: physicochemical
Method: This stability study was validated with the aid of compound 6 stored at -20° C. and used as reference. It was checked beforehand that compound 6 is stable when stored at -20° C. for at least 18 months.

Substance | Stability of the solutions [1] | Duration stable when stored at −20° C. [2]
Ac-Asn Tyr Arg Ala Tyr Ala Thr Glu Pro His Ala Lys Lys Lys Ser Lys Gln Lys Met Gln Ala Met Met Gln Ala Leu Leu Gly Ala Arg Ala Lys Glu-NH2 (Ac-NYRAYATEPHAKKKSKQKMQAMMQALLGARAKE-NH2) [Compound 10, Ia with Ξ = Ac-NYRAYA-, Z = -AKKKSK-(QKMQ)1-AMMQA-, Ψ = -AKE-NH2] | excellent stability | –
Ac-Gly Asn Tyr Arg Ala Tyr Ala Thr Glu Pro His Ala Lys Lys -NH-(CH2)5-CO-Ala Met Met Gln Ala Leu Leu Gly Ala Arg Ala Lys Glu-NH2 [Compound 6] | – | at least 18 months
